Results published in patent US20100291106A1 (Novartis, published 2010).
Numbering of substitutions follows the chain as printed. Read-outs that look alike come from different tables or passages of the source.

Legend:
[1] = biological target: T1, cynomolgus complement C3b protein (cynomolgus monkey (Macaca fascicularis)); experiment: cell-based or functional assay
[2] = biological target: T1, cynomolgus complement C3b protein; experiment: solution equilibrium titration (SET), ECL detection, Fab
[3] = biological target: T1, cynomolgus complement C3b protein; experiment: SPR (Biacore), C3b captured by anti-C3d antibody, Fab as analyte
human C5 [4] = biological target: T2, human C5 (human, UniProt P01031 19-673; P01031 678-1676); experiment: cross reactivity, capture ELISA with anti-C5 capture antibody, anti-His detection
T2 construct: Captured by an anti-C5 antibody in the ELISA
T2 sequence (P01031 19-673 limits assumed, chain 1 of 2): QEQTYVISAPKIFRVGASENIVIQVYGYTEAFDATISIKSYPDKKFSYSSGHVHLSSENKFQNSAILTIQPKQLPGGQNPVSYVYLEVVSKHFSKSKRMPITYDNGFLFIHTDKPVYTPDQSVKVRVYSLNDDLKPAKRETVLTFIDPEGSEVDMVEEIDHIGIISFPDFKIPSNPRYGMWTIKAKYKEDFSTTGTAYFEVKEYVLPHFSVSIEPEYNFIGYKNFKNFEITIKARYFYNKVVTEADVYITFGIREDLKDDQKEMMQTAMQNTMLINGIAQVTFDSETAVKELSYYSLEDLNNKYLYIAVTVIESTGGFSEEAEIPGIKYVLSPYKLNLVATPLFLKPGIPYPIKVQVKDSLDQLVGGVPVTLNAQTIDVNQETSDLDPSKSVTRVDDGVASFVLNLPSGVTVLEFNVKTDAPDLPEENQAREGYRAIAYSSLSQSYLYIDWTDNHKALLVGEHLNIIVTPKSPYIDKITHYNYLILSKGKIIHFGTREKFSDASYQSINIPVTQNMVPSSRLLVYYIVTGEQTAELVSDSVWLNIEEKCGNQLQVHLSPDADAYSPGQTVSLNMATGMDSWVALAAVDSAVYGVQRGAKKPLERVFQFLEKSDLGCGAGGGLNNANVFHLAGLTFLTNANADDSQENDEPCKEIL
T2 sequence (P01031 678-1676 limits assumed, chain 2 of 2): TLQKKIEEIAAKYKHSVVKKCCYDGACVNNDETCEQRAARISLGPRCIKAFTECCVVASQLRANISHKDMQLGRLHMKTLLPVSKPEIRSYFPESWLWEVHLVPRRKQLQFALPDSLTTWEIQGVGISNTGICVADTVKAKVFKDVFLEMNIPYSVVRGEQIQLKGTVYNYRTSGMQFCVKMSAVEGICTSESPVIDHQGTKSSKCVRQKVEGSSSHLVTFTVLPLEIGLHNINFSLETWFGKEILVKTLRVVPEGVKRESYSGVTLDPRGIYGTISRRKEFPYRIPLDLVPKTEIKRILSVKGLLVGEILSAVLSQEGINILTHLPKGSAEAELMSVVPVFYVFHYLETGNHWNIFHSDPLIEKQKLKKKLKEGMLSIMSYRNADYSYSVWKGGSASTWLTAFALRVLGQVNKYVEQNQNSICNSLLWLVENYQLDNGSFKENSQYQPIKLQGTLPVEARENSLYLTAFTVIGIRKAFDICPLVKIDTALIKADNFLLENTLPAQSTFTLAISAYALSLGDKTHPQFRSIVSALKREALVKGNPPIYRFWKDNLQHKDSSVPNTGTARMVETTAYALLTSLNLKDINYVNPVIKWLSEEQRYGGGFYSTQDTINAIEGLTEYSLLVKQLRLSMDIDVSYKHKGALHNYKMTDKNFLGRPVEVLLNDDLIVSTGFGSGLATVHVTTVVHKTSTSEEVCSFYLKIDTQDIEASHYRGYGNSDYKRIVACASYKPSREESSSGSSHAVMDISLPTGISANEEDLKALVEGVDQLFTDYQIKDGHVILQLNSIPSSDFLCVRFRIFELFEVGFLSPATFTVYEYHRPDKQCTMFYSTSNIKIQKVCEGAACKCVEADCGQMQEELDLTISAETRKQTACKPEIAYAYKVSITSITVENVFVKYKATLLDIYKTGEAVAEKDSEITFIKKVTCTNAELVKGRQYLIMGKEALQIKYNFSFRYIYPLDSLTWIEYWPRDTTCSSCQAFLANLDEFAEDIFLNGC

[5] = biological target: T1, cynomolgus complement C3b protein; experiment: SPR (Biacore T100), C3b captured by anti-C3d antibody, IgG as analyte, 1:1 model
[6] = biological target: T1, cynomolgus complement C3b protein; experiment: cell-based or functional assay; remark: listed apart in the source
human C5 [7] = biological target: T2, human C5; experiment: Direct ELISA at 2 ug/ml C5, 200 nM Fab
[8] = biological target: T1, cynomolgus complement C3b protein; experiment: solution equilibrium titration (SET), ECL detection, Fab; remark: listed apart in the source
[9] = biological target: T1, cynomolgus complement C3b protein; experiment: SPR (Biacore), C3b captured by anti-C3d antibody, Fab as analyte; remark: listed apart in the source
[10] = biological target: T3, human complement C3b protein (human, UniProt P01024 23-667; P01024 749-1663); experiment: cell-based or functional assay
T3 sequence (P01024 23-667 P314L, chain 1 of 2): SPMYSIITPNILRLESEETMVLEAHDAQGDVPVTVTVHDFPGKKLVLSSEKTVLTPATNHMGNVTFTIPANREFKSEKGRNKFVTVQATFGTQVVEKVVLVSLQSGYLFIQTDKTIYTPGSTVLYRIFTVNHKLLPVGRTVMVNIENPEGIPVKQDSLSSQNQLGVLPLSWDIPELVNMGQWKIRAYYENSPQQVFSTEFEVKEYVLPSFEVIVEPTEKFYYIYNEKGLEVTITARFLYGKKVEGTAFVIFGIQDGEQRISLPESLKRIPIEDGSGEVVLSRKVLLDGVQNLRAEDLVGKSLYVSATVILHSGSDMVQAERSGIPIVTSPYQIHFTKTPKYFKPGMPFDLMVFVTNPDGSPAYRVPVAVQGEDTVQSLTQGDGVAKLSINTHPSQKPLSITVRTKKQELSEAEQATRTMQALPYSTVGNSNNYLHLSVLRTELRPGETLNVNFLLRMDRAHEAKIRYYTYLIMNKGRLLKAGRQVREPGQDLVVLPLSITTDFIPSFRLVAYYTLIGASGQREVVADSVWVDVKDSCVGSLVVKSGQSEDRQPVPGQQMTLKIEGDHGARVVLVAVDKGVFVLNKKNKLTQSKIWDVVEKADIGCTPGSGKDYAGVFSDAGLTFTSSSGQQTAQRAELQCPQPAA
T3 sequence (P01024 749-1663, chain 2 of 2): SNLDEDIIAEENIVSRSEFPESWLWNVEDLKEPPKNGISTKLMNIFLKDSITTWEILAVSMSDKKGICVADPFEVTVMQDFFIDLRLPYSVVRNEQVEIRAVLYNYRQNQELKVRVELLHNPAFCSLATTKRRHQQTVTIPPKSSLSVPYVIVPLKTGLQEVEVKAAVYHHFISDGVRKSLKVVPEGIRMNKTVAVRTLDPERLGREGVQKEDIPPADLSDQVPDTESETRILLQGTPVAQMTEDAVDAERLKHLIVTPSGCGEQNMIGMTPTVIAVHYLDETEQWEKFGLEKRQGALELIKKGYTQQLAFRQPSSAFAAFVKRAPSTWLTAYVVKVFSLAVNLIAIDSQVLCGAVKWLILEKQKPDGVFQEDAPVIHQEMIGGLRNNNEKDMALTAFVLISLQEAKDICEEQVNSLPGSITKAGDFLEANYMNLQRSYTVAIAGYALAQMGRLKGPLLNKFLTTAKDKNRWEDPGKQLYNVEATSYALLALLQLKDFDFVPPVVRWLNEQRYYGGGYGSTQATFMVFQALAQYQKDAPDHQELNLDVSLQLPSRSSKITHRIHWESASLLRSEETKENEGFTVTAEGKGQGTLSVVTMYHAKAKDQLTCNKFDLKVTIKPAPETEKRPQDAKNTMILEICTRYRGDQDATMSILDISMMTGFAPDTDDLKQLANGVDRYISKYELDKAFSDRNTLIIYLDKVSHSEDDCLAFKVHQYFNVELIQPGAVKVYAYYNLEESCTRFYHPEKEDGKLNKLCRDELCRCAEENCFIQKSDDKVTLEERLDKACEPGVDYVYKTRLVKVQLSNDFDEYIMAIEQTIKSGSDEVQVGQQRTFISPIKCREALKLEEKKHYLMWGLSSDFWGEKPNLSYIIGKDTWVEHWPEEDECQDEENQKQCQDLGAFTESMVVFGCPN

human C3d [11] = biological target: T4, human C3d (human, UniProt P01024 1002-1303); experiment: cross reactivity, ELISA on C3d, anti-His detection
T4 construct: domain: C3d
T4 sequence (P01024 1002-1303 limits assumed): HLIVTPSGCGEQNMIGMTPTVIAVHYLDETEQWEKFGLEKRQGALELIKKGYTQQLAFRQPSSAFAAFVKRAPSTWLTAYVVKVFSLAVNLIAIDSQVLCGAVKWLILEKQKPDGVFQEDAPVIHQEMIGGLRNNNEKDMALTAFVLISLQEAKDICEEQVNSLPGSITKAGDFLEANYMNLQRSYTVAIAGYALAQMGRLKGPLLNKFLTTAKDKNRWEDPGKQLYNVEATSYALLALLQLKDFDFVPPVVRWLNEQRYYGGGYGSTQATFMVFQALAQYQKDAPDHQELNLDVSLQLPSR
Protocol: In order to determine whether the anti-C3b antibodies described herein can bind to complement pathway components iC3b and C3c, the following steps were performed: Directly add iC3b(complement Technologies A115), C3d (complement Technologies A117), or C3c (complement Technologies A116), at 2 μg/ml in Carbonate Buffer onto Coat Maxisorp plate Nunc (442404) at 100 μl per well. Seal plates and incubate at 4° C. overnight. Aspirate plates and wash 3 times with PBS/0.5% Tween 20. Block plates with Diluent (PBS, 4% BSA Fraction V (Fisher ICN16006980), 0.1% Tween 20 (Sigma P1379), 0.1% Triton X-100 (Sigma P234729)) and incubate for 2 h at room temperature or overnight at 4° C. Then wash plates once with PBS/0.5% Tween 20. Dilute Fabs at 100 nM and subsequent dilutions (or higher concentration if needed) in diluent and plate 100 μl per well. Incubate at room temperature for 1 h. Wash plates 3 times with PBS/0.5% Tween 20. Add 100 μl/well of anti-Histidine-HRP monoclonal detection antibody at 1:400 in diluent and incubate at room temperature for 1 h. Then wash 4 times with PBS/0.5% Tween 20. Add 100 μl of TMB substrate (Pierce 34028) and incubate at room temperature for up to 5 min. Add 50 μl of Stop solution (2N Sulfuric Acid) to each well and read plate at 450 nm and correct for plastic reading at 570 nm.

[12] = biological target: T3, human complement C3b protein; experiment: solution equilibrium titration (SET), ECL detection, Fab
[13] = biological target: T3, human complement C3b protein; experiment: SPR (Biacore), C3b captured by anti-C3d antibody, Fab as analyte
[14] = biological target: T3, human complement C3b protein; experiment: cell-based or functional assay; remark: listed apart in the source
[15] = biological target: T3, human complement C3b protein; experiment: ELISA, C3b or C3 captured by anti-C3d antibody
Protocol: The C3b antibodies were examined to determine whether they were selective for binding to C3b relative to the C3b precursor C3. Briefly, binding selectivity for C3b was determined by performing the following steps. Coat Maxisorp plate Nunc (442404) with anti-C3d rabbit monoclonal (abcam 17453) at 2 μg/ml in Carbonate Buffer at 100 μl/well. Seal plates and incubate at 4° C. overnight. Aspirate plates and wash 3 times with PBS/0.5% Tween 20. Block plates with Diluent (PBS, 4% BSA Fraction V (Fisher ICN16006980), 0.1% Tween 20 (Sigma P1379), 0.1% Triton X-100 (Sigma P234729)) and incubate for 2 h at room temperature or overnight at 4° C. Then wash plates once with PBS/0.5% Tween 20. Dilute purified C3b (complement technologies A114 lot 21) and C3 (complement technologies A113c) at 1 μg/ml in diluent and plate 100 μl per well. Incubate for 1 h at room temperature. Then wash 3 times with PBS/0.5% Tween 20.
Dilute Fabs at 100 nM and subsequent dilutions (or higher concentration) in diluent and plate 100 μl per well. Incubate at room temperature for 1 h. Wash plates 3 times with PBS/0.5% Tween 20. Add 100 μl/well of anti-Histidine-HRP monoclonal detection antibody at 1:400 in diluent and incubate at room temperature for 1 h. Then wash 4 times with PBS/0.5% Tween 20. Add 100 μl of TMB substrate (Pierce 34028) and incubate at room temperature for up to 5 min. Add 50 μl of Stop solution (2N Sulfuric Acid) to each well and read plate at 450 nm and correct for plastic reading at 570 nm.

human C3d [16] = biological target: T4, human C3d; experiment: C3d binding ELISA, IgG titrated from about 0.006 to 100 nM
[17] = biological target: T3, human complement C3b protein; experiment: SPR (Biacore T100), C3b captured by anti-C3d antibody, IgG as analyte, 1:1 model
[18] = biological target: T3, human complement C3b protein; experiment: AlphaScreen bead proximity, C3b-Acceptor beads pre-incubated with antibody, then biotinylated fH and SA-Donor beads; blocked ligand: fH [C]
Protocol: In brief, purified C3b and fP were conjugated to unconjugated acceptor or donor beads (PerkinElmer) using AminoLink Reductant (Pierce) during a 48 h incubation at room temperature. Beads were quenched using Carboxymethoxylamine Hemihydrochloride (Aldrich), and purified by centrifugation at 13000 rpm and three washes with 0.1M TBST. Purified fB(D24G/N260D) and fH were biotinylated during a 30 min incubation with 20-fold molar excess of NHS-Chromogenic-biotin (Pierce) at room temperature, and purified using Zeba 0.5 ml desalting columns (Pierce).
For C3b-C3b and C3b-fP proximity, Fabs or IgGs respectively were pre-incubated with C3b-Acceptor beads (20 μg/ml) for 60 min at room temperature. C3b-Donor beads or fP-Donor beads (20 μg/ml) were then added, and the plate was incubated overnight at room temperature before reading. For C3b-fB and C3b-fH proximity, antibodies were pre-incubated with C3b-Acceptor beads (20 μg/ml) for 60 minutes at room temperature. Biotinylated fB(D24G/N260D) or fH were then added, and incubated for 60 minutes at room temperature. SA-Donor beads were then added (20 μg/ml) and the plate was incubated overnight at room temperature before reading. Plates were read on the BMG Pherastar (ex=680, em=520-620).

B1: MOR09373 Fab (Fab, V domains shown)
VH: QVQLVQSGAEVKKPGASVKVSCKASGYTFTSYSMHWVRQAPGQGLEWMGLINPYNGNTHYAQKFQGRVTMTRDTSISTAYMELSSLRSEDTAVYYCARMLRFDVWGQGTLVTVSS
VL: DIALTQPASVSGSPGQSITISCTGTSSDGGGYNYVSWYQQHPGKAPKLMIYGVSNRPSGVSNRFSGSKSGNTASLTISGLQAEDEADYYCQTYTRYSDSPVFGGGTKLTVLG
notes: also called Fab 9373
C3b Dep (nM), cyno serum, IC50 [1]: 5 nM
HA (nM), 10% cyno serum, IC50 [1]: 62 nM
MAC Dep (nM), cyno serum, IC50 [1]: 6 nM
Kd [2]: 0.078 nM
Kd [3]: 9 pM
binding result (human C5 [4]): no binding

B2: MOR09674 IgG (antibody, V domains shown)
VH: B1 VH with Q1E
VL: B1 VL with D1E, I2S
notes: Germlined human IgG1 with leucines 234 and 235 changed to alanines, lambda; also called antibody 9674
Kd [5]: 0.00713 nM
koff [5]: 5.95e-05 s⁻¹
kon [5]: 8.34e+06 M⁻¹ s⁻¹

B3: MOR9674 Fab format (Fab, V domains shown)
VH: B1 VH with Q1E
VL: B1 VL with D1E, I2S
C3b Dep (nM), cyno serum, IC50 [6]: 70 nM
HA (nM), 10% cyno serum, IC50 [6]: 78 nM
MAC Dep (nM), cyno serum, IC50 [6]: 17 nM
binding result (human C5 [7]): no binding (tested: 200 nM)
Kd [8]: 0.09 nM
Kd [9]: 0.119 nM

B4: MOR09136 Fab (Fab, V domains shown)
VH: QVQLVQSGAEVKKPGSSVKVSCKASGGTFSSYTFSWVRQAPGQGLEWMGNILPIFGDANYAQKFQGRVTITADESTSTAYMELSSLRSEDTAVYYCARNKGAFYYMSTYPSLDVWGQGTLVTVSS
VL: DIQMTQSPSSLSASVGDRVTITCRASQNINYYLNWYQQKPGKAPKLLIYDAFSLQSGVPSRFSGSGSGTDFTLTISSLQPEDFATYYCQQSWSVPPFTFGQGTKVEIKR
notes: also called Fab 9136
C3b Dep (nM), human serum, IC50 [10]: 8 nM
HA (nM), 10% human serum, IC50 [10]: 32 nM
MAC Dep (nM), human serum, IC50 [10]: 2 nM
C3b Dep (nM), cyno serum, IC50 [1]: 3 nM
HA (nM), 10% cyno serum, IC50 [1]: 52 nM
MAC Dep (nM), cyno serum, IC50 [1]: 3 nM
binding result (human C3d [11]): no binding
Kd [12]: 0.096 nM
Kd [2]: 0.016 nM
Kd [13]: 0.075 nM
Kd [3]: 5 pM
binding result (human C5 [4]): no binding

B5: MOR09609 IgG (antibody, V domains shown)
VH: B4 VH with Q1E
VL: B4 VL
notes: Germlined human IgG1 with leucines 234 and 235 changed to alanines, kappa; also called antibody 9609
MAC deposition on zymosan, IC50 [14]: ≤ 5 nM
hemolysis of rabbit red blood cells, 10% human or cynomolgus serum, IC50 [14]: ≤ 50 nM
inhibition of C3a and C5a generation during hemolysis, IC50 [14]: ≤ 50 nM
fold binding selectivity for C3b over C3 [15]: > 1000 fold
binding result (human C3d [16]): no binding (tested: 100 nM)
Kd [17]: 2.2 pM
koff [17]: 3.16e-06 s⁻¹
kon [17]: 1.44e+06 M⁻¹ s⁻¹
Kd [5]: 0.0228 nM
koff [5]: 4.6e-05 s⁻¹
kon [5]: 2.02e+06 M⁻¹ s⁻¹
IC50 (read off the curve) [18]: ~0.1 nM

B6: 9609 (Fab, V domains shown)
VH: B4 VH with Q1E
VL: DIQMTQSPSSLSASVGDRVTITCRASQNINYYLNWYQQKPGKAPKLLIYDAFSLQSGVPSRFSGSGSGTDFTLTISSLQPEDFATYYCQQSWSVPPFTFGQGTKVEIK
notes: the IgG is m13; also called 9609 Fab format; MOR9609 Fab
binding result (human C5 [7]): no binding (tested: 200 nM)

B7: MOR09141 Fab (Fab, V domains shown)
VH: B4 VH
VL: B4 VL with W92I, S93A
notes: also called Fab 9141
C3b Dep (nM), human serum, IC50 [10]: 7 nM
HA (nM), 10% human serum, IC50 [10]: 27 nM
MAC Dep (nM), human serum, IC50 [10]: 1 nM
C3b Dep (nM), cyno serum, IC50 [1]: 9 nM
HA (nM), 10% cyno serum, IC50 [1]: 43 nM
MAC Dep (nM), cyno serum, IC50 [1]: 2 nM
binding result (human C3d [11]): no binding
Kd [12]: 0.1 nM
Kd [2]: 0.02 nM
Kd [13]: 0.039 nM
Kd [3]: 4 pM
binding result (human C5 [4]): no binding

B8: MOR09610 IgG (antibody, V domains shown)
VH: B4 VH with Q1E
VL: B4 VL with W92I, S93A
notes: Germlined human IgG1 with leucines 234 and 235 changed to alanines, kappa; also called antibody 9610
MAC deposition on zymosan, IC50 [14]: ≤ 5 nM
hemolysis of rabbit red blood cells, 10% human or cynomolgus serum, IC50 [14]: ≤ 50 nM
inhibition of C3a and C5a generation during hemolysis, IC50 [14]: ≤ 50 nM
fold binding selectivity for C3b over C3 [15]: > 1000 fold
binding result (human C3d [16]): no binding (tested: 100 nM)
Kd [17]: 4.9 pM
koff [17]: 4.02e-06 s⁻¹
kon [17]: 820000 M⁻¹ s⁻¹
Kd [5]: 0.0335 nM
koff [5]: 6.41e-05 s⁻¹
kon [5]: 1.91e+06 M⁻¹ s⁻¹
IC50 (read off the curve) [18]: ~0.2 nM
